Target: TNF-alpha (mouse) (Mus musculus, UniProt P06804 80-235)
Experiment: nitrocellulose filter binding with qPCR

TNF-alpha (mouse), sequence (P06804 80-235): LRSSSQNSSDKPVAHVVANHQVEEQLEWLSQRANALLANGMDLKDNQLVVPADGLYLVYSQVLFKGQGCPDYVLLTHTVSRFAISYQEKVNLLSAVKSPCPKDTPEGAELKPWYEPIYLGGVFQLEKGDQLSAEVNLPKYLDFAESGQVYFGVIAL

GCGCCACTACAGGGGAGCTGCCATTCGAATAGGTGGGCCGC (ssDNA) [aptTNF-alpha]
binding result: binds
